According to the nanobody polyreactivity screen of Harvey et al. (2022):

Assay: yeast display, Sf9 membrane polyspecificity reagent, FACS + sequencing; frameworks hold sequencing errors
Method in brief: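 Galactose induction of a Saccharomyces cerevisiae BJ5465 synthetic nanobody display library ran 36–48 hours. The cells were then stained for 1 hour at 4 °C with 10% biotinylated, detergent-solubilized Sf9 membrane reagent, pulled down on streptavidin microbeads and FACS-sorted into low and high (top ~1%) gates on expression and reagent-binding fluorescence. Labels for polyreactivity follow the gate of origin.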

Sequence | polyreactivity (PSR sort gate)
QVQLVESGGGLVQAGGRLRISCAASGSTFQPYAMGWYRQAPGKERELVAAISWRGGSTYYADSVKGRFTISRDNAKNTVYLQMNSLKPEDTAVSYCAAYFYFRRGTDYDYWGQGTQVTVSS | high polyreactivity
QVQLVESGGGLVQAGGSLRLSCAASGLIFASYAMGWYRQAPGKERELVAAISWSGGSTYYADSVKGRFTISRDNAKNTVYLQMNSLKPEDTAVYYCAAKRYAYGSLDYWGQGTQVTVSS | high polyreactivity
QVQLVESGGALVQAGGSLRLICAASGSTFDSNVKGWSRTAPGKERELVAVINGSGSNTYYADSVKGRFTISRDNAKNTVYLQMNSLKPEDTAVYYCNKRYWGGRYGYDYWGQGTQVTVSS | high polyreactivity
QVQLVESGGGLVQAGGSLRLSCAASGSSFRSNDMGWYRQAPGKERELVARITSSVGSTYYADSVKGRFTISRDNAKNTVYLQMNSLKPEDTAVYYCAKRYYHYPYGYRDYDYWGQGTQVTVSS | low polyreactivity
QDQLVESGGGLVQAGGSLRLSCAASGFTFNTYAMGWNRQAPGKERELVDAISKSGTRTYYADSVKGRFTISRDNAKNTVYLQMKSLKPEVTAVYYCAAEALYYYRLGWVYLRYDYWGQGTQVTVSS | high polyreactivity
QVQLVESGGGLVQAGGSLRLSCAASGRTLRKYAMGWYRQAPGKERELVAGFTGSAGSTYYADSVKGRFTISRDNAKNTVYLQMNSLKPEDTAVYYCAKSGLRYGFDYWGQGTQVTVSS | high polyreactivity
QVQLVESGGGLVQARGSLRLSCAASGRIFTTYAMGWYRQAPGKESELVAAISQTGGSTYYADSVKGRFTISRDNAKNTVYLKMNSLKPEDTAVYYCNAGPAGYYDDDYWGQGTQVTVSS | low polyreactivity
QVQLVESGGGLVQAGGSLRLSCAASGSIFVHYAMGWYRQAPGKERELVAAITSSGGRTYYADSVKGRFTISRDNAKNTVYLQMNSLKPEDTAVYYCNAAKYLFRHGFLSAGDMYYWGQGTQVTVSS | high polyreactivity
QVQLVESGGGLVQAGGSLRLSCAASGYIFGDYVMGWYRQAPGKERELVAAISSSGDTNYADSVKGRFTISRDNAKNTVYLQMNSLKPEDTAVYYCAAVDWIGRVHGKPWGGDYWGQGTQVTVSS | low polyreactivity
QVQLVESGGGLVHAGGSLRLSCASSGRTFAYSAMGWYRQAPGIERELVATITSAGSTNYADSVKGRFTISRDNAKNTVYLQMNSLKPEDTAVYYCNRRVWGSSRLKYNYWGQGTQVTVSS | high polyreactivity
QVQLVESGGGLVQAGGSLRLICAASGRTFSGNTMGWYRQAPGKERELVAAITGRGGSTYYADSVKGRFTISRDNAKNTVYLQMNSLKPEDTAVYYCAALRYTFAGRFDYWGHGTQVTVSS | high polyreactivity
QVQLVESGGGLVQAGGSLRLSCAASGGILHYYAMGWYRQAPGKERELVAAISWSGGSTYYADSVKGRFTISRDNAKNTVYLQMNSLKPEDTAVYYCNKVGVAYIFGWMDYWGQGTQVTVSS | high polyreactivity
QVQLVESGGGLVQAGGSLRLSCAASGRTFSVNAMGWYRQAPGKEREMVAAITSGASTNYADSVKGRFTISRDNAKNTVYLQMNSLKPEDTAVYYCAADATYGHVPAEYDYWGQGTQVTVSS | low polyreactivity
QVQLAESGGGLVQAGGSLRLSCAASGRTFSQYGMGWYRQAPGKERELVARIRRSGGSTYYADSVKGRFTISRDNAKNTVYLQMNSLKPEDTAVYYCNADGQPYTRYGYWGQGTRVTVSS | high polyreactivity
QVQLVESGGGLVQAGGSLRLSCAASGFIFQQNAMGWYRQAPAKERELVAAINRSGGSTNYADSVKGRFTISRDNAKNTVYLQMNSLKPEDTAVYYCATNGRSFVSKSTMYYWGQGTQVTVSS | high polyreactivity
QVQLVESGGGLVQAGGSLRLSCAASGSIFYTYAMGWYRQAPGKERELVAAISSGGSTNYADSVKGRFTISRDNPKNTVYLQMNSLKPEDTAVYYCAAEYTRSFYIYYRFGYWGQGTQVTVSS | high polyreactivity
QVQLVESGGGLVQAGGSLRLSCAASGRIFRYYAMGWYRQAPGKETELVAAINWSGGSTYYADSVKGRFTISRDNAKNTVYLQMNSLKPEDTAVYYCNRRAYIRYDSSSLDYWGQGTQVTVSS | low polyreactivity
QVQLVESGGGLVQAGGSLRLSCAASGRTFQGYAMGWYRQAPGKERDLVAAISTSGARTYYADSVKGRFTISRDNAKNTVYLQMNSLKPEDTAFYYCAAGGQGGDFGDDYWGQGTQVTVSS | high polyreactivity
QVQRVESRGGLVQAGGSLRLSCAASGSTFHRYVKGWSRTATGKERELVSVINSTGASTYYADSVKWRYTLSRDNAKNSVYLQMNSLKPEDTAVYYCARVTRRGPGYTTLYSRYDYWGQGTQVTVSS | low polyreactivity
QVQLVESGGGLVQAGGSLRLSCAASGFTFSGNAMGWYRQAPGKEREIVAAITARGGNTFYADSVKGRFTISRDNAKNTVYLQMNSLQPEETAVSYCKRGPYYSSSKYRFSAYHRAYWGQGNQVTVSS | high polyreactivity
QVQLVESGGGLVQAGGSLRLSCAASGSTFAKNAMGLYRQAPGKERELVAAISRGGNTYYADSVKGRFTISRDNAKNTVYLQMNSLKPEDTAVYYCAKLPYTRNYLGSLYDYWGQCTQVTVSS | high polyreactivity
QVQLVESGGGLVQAGGSLRLSCAASGSTFVFYAMGWYRQAPGKERELVATISSGGSTYADSVKGRFTISRDNAKNTVYLQMYSLKPEDTAVYYCAADSLFGHYDYWGQGTQVTVSS | low polyreactivity

Sequence | polyreactivity (PSR sort gate)
QVQLVESGGGLVQAGGSLRLSCAASGLTFGYYAMGWYRQAPGKERELVAAISSSGGRTYYADSVKGRFTISRDNAKNTVYLQMNSLKPEDSAVYYCAKSRYATQTDYNYWGQGTQVTVSS | high polyreactivity
QVQLVESGGGLVQAGGSLRLSCAASGRILIRNAMGWYRQAPGKERELVAAINRGGGSTYYADSVKGRFTISRDNAKNTVYLQMNSLKPEDTAVYYCAADRKAGYSRVDGDYWGQGTQVTVSS | low polyreactivity
QFQLEESGGGLVQAGGSLRLSCAASGSIFKGYTMGWYRQAPRKVREFVASMSRRGGSTYYADSVKGRFTISRDYAKNTVYLQMNSLKPEDTAVYYCAKDYGKAYDDWGQGTQVTVSS | high polyreactivity
QVQLVESGGGLVQAGGSLRLSCAASGGTFVHYTMGWYRPAPGKERELVASIRRGGSTNYADSVKGRFTISRDNAKNTVYLQMNSLKPEDTAVYYCAKRVQHYRYYYWGQGSQVTVSS | low polyreactivity
QVQLVESRGGLVQAGGSLRLSCAASGRTFGRYAMGWYRQAPGKERELVAAINRGGSTKYADSVKGRFTISRDNAKNTVYLQMNSLKPEDTAVYYCAKDRHPALHYDYWGQGTQVTVSS | low polyreactivity
QVQLVESGGGLVQAGGSLRLSCAASGLIFGYNAMGWYRQAPGKERELVAAISWSGGRTYYADSVKGRFTISRDNAKNTVYLQMNSLKPEDTAVYYCAAVVRHSYFRDDHWGQGTQVTVSS | high polyreactivity
QVQLLHSGGGKVQAGGRLRLSCAASGFIFCYYAMGWYRQAPGKERELVATISSGGNTYYADSVKGRFTISRDNAKNTVYLQMNSLKPEDTAVYYCAARWGVRPFYSTQYRYYYWGQGTQVTVSS | high polyreactivity
QVQLVESGGGLVQAGGSLRLSCAASGNTFGYYALGWYRQAPGKERELVAGISSGGSTNYADSVKGRFTISRDNAKKTVYFQMNSLKPEDTAVYYCNARRYWLRYDYWGQVTQVTVSS | low polyreactivity
QVQLVQSGGGLVQAGGSLRLSCAASGSIFLYYVMGWYRQAPGQERELVAAITWDGGSTYYADSVKGRFTISRDNAKNTVYLQMNSLNPEDTAVYFCAARVASKYLVYRKRPSRYDYWGQGTQLTVSS | low polyreactivity
QVQLVESGGGLVQAGGSLRLRCAASGGIFGRYAMGWNRQAPGKERELVAAISSRGGSTYYADSVKGRFTISRDNAKNTVYLQMNSLKPEDTAVYYCNALWVSYYTFRMDYWGQGTQVTVSS | high polyreactivity
QVQLVESGGGLVQAGGSLRLSCAASGSTSGIYAMGWYRQAPGKERELVAAIDTSGGSTYADSVKGRFTISRDNAKNTVYLQMNSLKPEDTAVYYCAKPFSSNSWSHGYWGQGTQVTVSS | low polyreactivity
QVQLVESGGGLVQAGCSLRLSCAASGSIFAVYAMGWYRQATGKERELVAAISWSVGSTYYADSVKGRFTISRDHAKNTVYFQMNSLKPEDTAVYYCAAELAYYLDYVEYFTEIDLEGYWGQGTQVTVSS | low polyreactivity
QVQLVESGGGLVQAGGSLRLSCAASGSIFWVYAMGWYRQAPGKERELVAAISSSGGRTYYADSVKGRFTISRDNAKNTVYLQMNSVKPEVTAVYYCAARWKTGYNYWGQGTQVTVSS | high polyreactivity
QDQLVESGGGVVQAGGSLRLSCAASGRIVGSKASGVSIEAPRKESEFVAAISSCSRTYYADSVKGLFSISRDNAKNTVYLQMNSLKPEDTAVYYCAKRGYFYSHRHGYEYGGQGTQVTVSS | high polyreactivity
QVQLVESGGGLVQAGGSLRLSCAASGSIFRKYAMGWYRQAPGKERELVAVITTDGSTNYADSVKGLFTISRDNAKNTVYLQMNSLKPEDTAVYYCNAVRSSIGTDNDYWGQGTQVTVSS | low polyreactivity
QVQLVESGGGLVQAGGSLRLSCAASGRTFRYYAMGWYRQPPGKERELVATITGSGGSTYYADSVKGRFTISRDNAKNTVYVQMNSLKPEDTAVYDCNARKVRYPYRWYDYWGQGTQVTVSS | high polyreactivity
QVQLVESGGGLVQSGGSLRLTCAASGIIFPRYAMGWYRQAPGKERELVAAITRRGGRTYYADSVKGRFTISRDNAKNTVYLQMNSLKPEDTAVYYCNADFISTRPPKATDEDYWGQGTQVTVSS | high polyreactivity
QVQLVESGGGLVQAGGSLRLSCAASGRTFGYYGMGWYRQAPGKERELVAAIRRRSGSTYYADSVKGRFTISRDNSKNTFYLQMNSLKPEDTAVYYCNQIRVSNFDYWGQGTQVTVSS | high polyreactivity
QVQLVESGGGLVQAGGSLRLSCAASGYIFLVYAMGRSRHAPRKERELVASITRGTRTYYADSVKGRFTISRDNAKNTVYLQMNILKPEDSAVYYCAASQNIRDWFRFGYGSWGQGTQVTVSS | low polyreactivity
QVQLVESGGGLVQAGGSLRLSCAASGSIFSTNGMGWYRQAPGKERELVAAISTGGRTYYADSVKGRFTISRDNAKNTVYLQMNSLKPEETAVYYCAKDHWTTTYDEGDYWGQGTEVTVSS | low polyreactivity
QVQLVESGGGLVQAGGSLRLSCAASGFTFGHYAMGWYRQAPGIERELVAAISRSGGTTSYADSVKGRFTISRDNAKNTVYLQMNSLKPEDTAVYYCNKDYIWARYGGGRDYWGQGTQVTVSS | low polyreactivity
